The target in assay [1] is T1, M Phase Phosphoprotein 8 chromodomain (UniProt Q99549 55-116).
T1 construct: M-phase phosphoprotein 8 (MPP8), chromodomain; also called MPP8 chromo; MPP8; source: E. coli BL21, purified (glutathione resin); not shown: GST, N-terminal, kept
T1 sequence: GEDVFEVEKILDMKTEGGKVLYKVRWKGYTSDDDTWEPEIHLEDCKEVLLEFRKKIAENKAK
Nature of the assay: fluorescence polarisation; protein serially diluted with 10 nM FAM peptide; 25 mM HEPES pH 7.5, 100 mM NaCl, 0.05% NP-40; anisotropy fitted by specific binding with Hill slope. As to conditions: both partners purified.

Assay [2] deals with T2, Chromodomain Y-like protein 2 chromodomain.
T2 construct: Chromodomain Y-like protein 2 (CDYL2), chromodomain; also called CDYL2 chromo; source: E. coli BL21, purified (glutathione resin); not shown: GST, N-terminal, kept
T2 sequence (Q8N8U2 whole entry, species assumed, looked up): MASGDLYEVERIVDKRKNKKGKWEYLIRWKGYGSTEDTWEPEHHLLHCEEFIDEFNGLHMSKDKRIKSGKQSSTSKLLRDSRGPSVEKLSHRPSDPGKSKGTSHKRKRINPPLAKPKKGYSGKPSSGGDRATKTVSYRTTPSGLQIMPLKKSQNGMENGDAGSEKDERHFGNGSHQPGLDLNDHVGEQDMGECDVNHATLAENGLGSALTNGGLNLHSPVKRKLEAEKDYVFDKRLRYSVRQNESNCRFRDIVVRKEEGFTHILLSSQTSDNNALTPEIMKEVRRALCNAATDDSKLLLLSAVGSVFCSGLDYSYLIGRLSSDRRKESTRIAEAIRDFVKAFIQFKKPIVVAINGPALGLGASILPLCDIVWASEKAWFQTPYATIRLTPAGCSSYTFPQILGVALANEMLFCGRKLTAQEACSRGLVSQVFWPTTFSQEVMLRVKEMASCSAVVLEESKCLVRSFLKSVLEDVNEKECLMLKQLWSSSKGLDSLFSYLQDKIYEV
The assay is described as above. As to conditions: both partners purified.

Where no end group is shown, it is not given here. [ ]: non-standard residue; d: D form. The star is where a group is joined. 5FAM = O=C1OC2(c3ccc(O)cc3Oc3cc(O)ccc32)c2ccc(C(=O)*)cc21; Lys(Me3) = C[N+](C)(C)CCCC[C@H](N)C(=O)O

B1: FAM-WSK(Kme3)RRR peptide (peptide)
chain: 5FAM-WSK[Lys(Me3)]RRR
modifications: also: flanking glycines, number not given here
The molecule B1 came in with a Kd in assay [1] of 6 µM.

B2: FAM-WAY(Kme3)TGK peptide (peptide)
chain: 5FAM-WAY[Lys(Me3)]TGK
modifications: also: flanking glycines, number not given here
The molecule B2 yielded a Kd in assay [2] of 0.1 ± 0.0066 µM.

In general, Kd refers to the concentration at which binding is half-saturated.

(Values after paper PMC7160673, “A Degenerate Peptide Library Approach to Reveal Sequence Determinants of Methyllysine-Driven Protein Interactions” (Frontiers in Cell and Developmental Biology, 2020).)
